Source: article PMC5147500 (Cell, 2016)
Non-standard residues stand in square brackets, D forms with d. No end group written: not given here. SeMet = C[Se]CC[C@H](N)C(=O)O

Tests used:
[1] = molecular target: VPS26A residues 1–317, the VPS26 part of the fusion VPS26(1–317)-DMT1(545–568) (human, UniProt O75436-1 1-317); assay: crystal structure
full-length human SNX3 = full-length human SNX3 (human, UniProt O60493-1 1-162); assay: crystal structure

Row | Binder | binding result [1] | binding result (full-length human SNX3)
1 | {VPS26(1–317)}-HLGLTAQPELYLLNTMDADSLVSR (peptide, UniProt P49281 545-568, looked up) [DMT1-II recycling signal residues 545–568, the DMT1 part of the fusion VPS26(1–317)-DMT1(545–568)] | binds | –
2 | {VPS26(1–321)}-TAQPELYLLNT[SeMet] (peptide, UniProt P49281 549-560, looked up) [DMT1-II recycling signal residues 549–560, the DMT1 part of the fusion VPS26(1–321)-DMT1(549–560)] | – | binds
3 | {VPS26(1–321)}-TAQPELYL[SeMet]NT[SeMet] (peptide, UniProt P49281 549-560, looked up) | – | binds
